Test results from patent US20220324932A1 (CSPC MEGALITH BIOPHARMACEUTICAL, published 2022).

T1: IL-2Rα (CD25) on the cell surface of mouse T cells (CTLL-2 cells; Treg cells of C57BL/6 mice) (mouse, UniProt P01590 22-268)
T1 sequence (looked up): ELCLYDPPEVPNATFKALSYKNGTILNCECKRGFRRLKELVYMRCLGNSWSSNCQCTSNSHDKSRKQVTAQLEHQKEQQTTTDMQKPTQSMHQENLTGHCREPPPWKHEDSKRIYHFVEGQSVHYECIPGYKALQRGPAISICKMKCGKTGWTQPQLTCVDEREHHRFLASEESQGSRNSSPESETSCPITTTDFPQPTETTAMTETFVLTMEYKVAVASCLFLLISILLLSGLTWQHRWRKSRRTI


Molecular target: T1, IL-2Rα (CD25) on the cell surface of …
Experiment: cell-based or functional assay

| fold decrease in bioactivity in inducing CTLL-2 cell growth, compared to parent IL-2 Aldesleukin | percentage of Treg cells in blood of C57BL/6 mice after treatment | Binder |
| --- | --- | --- |
| ~49 fold | 0.32% | IL-2A2 (modified IL-2 protein with exogenous patch sequence IFKQTY replacing a portion of IL-2 Aldesleukin) (ligand) PTSSSTKKTQLQLEHLLLDLQMILNGINNYKNPKLTRMLIFKQTYPKKATELKHLQCLEEELKPLEEVLNLAQSKNFHLRPRDLISNINVIVLELKGSETTFMCEYADETATIVEFLNRWITFSQSIISTLT |
|  | 0.25% | PEG-20K-IL-2A2 (IL-2A2 conjugated with 20 kDa methoxy-PEG-amine) (ligand, 20 kDa methoxy-PEG-amine conjugated by mTGase to the engineered Q residue of the IFKQTY patch) PTSSSTKKTQLQLEHLLLDLQMILNGINNYKNPKLTRMLIFKQTYPKKATELKHLQCLEEELKPLEEVLNLAQSKNFHLRPRDLISNINVIVLELKGSETTFMCEYADETATIVEFLNRWITFSQSIISTLT |
